The values that follow come from the supplement of paper PMC10567573.

The chains are these.
B1: KRT15 (parent)
chain: FGGGSTRGGSLLAGGGGFGGGSLS
B2: IQUB (parent)
chain: CRNCINLQNEAQKRESFLKYKCLL
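Further: lentivirally expressed fusions sorted by FACS into six bins by GFP to DsRed ratio, PSI derived from sequencing read proportions per bin multiplied by bin number.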

One series covers variants of B1. Description: protein stability index of a GFP-peptide fusion (GPS, HEK-293T) (PSI 1-6); higher = more stable. The conditions noted are these: c terminus: a fixed tail appended.
For FGGRSTRGGSLLAGGGGFGGGSLS [G4R], the protein stability index was found to be 1.58. As to FGGPSTRGGSLLAGGGGFGGGSLS [G4P], the protein stability index was found to be 2.94.

As for FGGGSTRGGSLLAGGGGFGGGSLK [S24K], the protein stability index came to 1.49.

As to FGGGSTRGGSLLAGGGGFGQGSLS [G20Q], the protein stability index was determined as 1.09.

FGGGSTRGGSLLAGGGGFGSGSLS [G20S]: the protein stability index stood at 1.77. As for FGGGSTRGGSLLAGGGGFGNGSLS [G20N], the protein stability index was found to be 2.17.

Turning to FGGGSTRGGSLLAGVGGFGGGSLS [G15V], the protein stability index worked out at 1.34. In the case of FGGGSTRGVSLLAGGGGFGGGSLS [G9V], the protein stability index turned out to be 1.84. Still for that read-out and setting: as for FGGGSTRGGRLLAGGGGFGGGSLS [S10R], the figure is 1.4; as for FGGGSTRGGQLLAGGGGFGGGSLS [S10Q], 1.89; as for FGGGSTRGGSLLAGGGSFGGGSLS [G17S], 1.64. Regarding FGGGSTRGGSLLAGGEGFGGGSLS [G16E], the protein stability index was 1.55. The same measure, in the same setting: as for FGGGSTRGGSLLAGGVGFGGGSLS [G16V], the figure is 1.28; as for FGGGQTRGGSLLAGGGGFGGGSLS [S5Q], 2.55. Take FGGGPTRGGSLLAGGGGFGGGSLS [S5P]: the protein stability index came out at 1.53.

As for FGGGATRGGSLLAGGGGFGGGSLS [S5A], the protein stability index is 1.57.

Take FGGGSTRGGSLLDGGGGFGGGSLS [A13D]: the protein stability index came out at 3.4. On the same count and under the same terms, as for FPGGSTRGGSLLAGGGGFGGGSLS [G2P], the figure is 1.96; as for FGGGSTRGGSMLAGGGGFGGGSLS [L11M], 1.6; as for FGGGSTRGGSFLAGGGGFGGGSLS [L11F], 1. On the same count and under the same terms, as for FGGGSTRGGSILAGGGGFGGGSLS [L11I], the figure is 1.56; as for FGGGSTRFGSLLAGGGGFGGGSLS [G8F], 3.67; as for FGGGSTRGGSLLAGGGGFGGRSLS [G21R], 1.24.

In another series the parent is B2. Described as above. The conditions noted are these: c terminus: a fixed tail appended.
Take CRNCINLQNEAQKREGFLKYKCLL [S16G]: the protein stability index stood at 2.93. Consider CRNCINLQNEAQKREIFLKYKCLL [S16I], for which the protein stability index was 1.59. Still for that read-out and setting: under CRNCINLQNEAQKRERFLKYKCLL [S16R] stands 2.62; under CRNCINLQNEAQKREFFLKYKCLL [S16F], 2.23; under CRNCIELQNEAQKRESFLKYKCLL [N6E], 1.7. Same read-out and setting: under CRNCIKLQNEAQKRESFLKYKCLL [N6K] stands 1.76. Still for that read-out and setting: under CRNCIRLQNEAQKRESFLKYKCLL [N6R] stands 2.09; under CRNCIYLQNEAQKRESFLKYKCLL [N6Y], 1.48. As for CRNCIMLQNEAQKRESFLKYKCLL [N6M], the protein stability index is 1.46. Still for that read-out and setting: under CRNCITLQNEAQKRESFLKYKCLL [N6T] stands 1.72; under CRNCIDLQNEAQKRESFLKYKCLL [N6D], 1.47. For CRNCIPLQNEAQKRESFLKYKCLL [N6P], the protein stability index was 1.7. On the same count and under the same terms, under CRNCIFLQNEAQKRESFLKYKCLL [N6F] stands 2.2; under CRNCIALQNEAQKRESFLKYKCLL [N6A], 1.77. On the same count and under the same terms, under CRNCICLQNEAQKRESFLKYKCLL [N6C] stands 1.76; under CRNCINLQNEAQKRESFGKYKCLL [L18G], 2.9; under CRNCINLQNEAQKRESFCKYKCLL [L18C], 2.6.

With CRNCINLQNEAQKRESFQKYKCLL [L18Q], the protein stability index stood at 1.85. Still for that read-out and setting: under CRNCINLQNEAQKRESFSKYKCLL [L18S] stands 1.39. Still for that read-out and setting: under CRNCINLQNEAQKRESFAKYKCLL [L18A] stands 1.57. Same read-out and setting: as for CRNCINLQNEAQKRESFYKYKCLL [L18Y], the figure is 1.38; as for CRNCINLQNEAQKRESFEKYKCLL [L18E], 2.25. On to CRNCINLQNEAQKRESFHKYKCLL [L18H], for which the protein stability index came out at 2.23. The same measure, in the same setting: under CRNCINLQNEAQKRESFRKYKCLL [L18R] stands 1.65. The same measure, in the same setting: as for CRNCINLQNEAQKRESFKKYKCLL [L18K], the figure is 2.15; as for CRNCINLQNEAQKEESFLKYKCLL [R14E], 1.36.

With CRNCINLQNEAQKNESFLKYKCLL [R14N], the protein stability index stood at 2.26. On the same count and under the same terms, under CRNCINLQNEAQKWESFLKYKCLL [R14W] stands 1.86; under CRNCINLQNEAQKKESFLKYKCLL [R14K], 2.02. The same measure, in the same setting: under CRNCINLQNEAQKFESFLKYKCLL [R14F] stands 2.34; under CRNCINLQNEAQKGESFLKYKCLL [R14G], 1.67.

CRNCINLQNEAQKAESFLKYKCLL [R14A]: the protein stability index was determined as 1.02. The same measure, in the same setting: under CRNCINLQNEAQKTESFLKYKCLL [R14T] stands 1.84; under CRNCINLQNEAQKHESFLKYKCLL [R14H], 1.83; under CRNCINLQNEAQKCESFLKYKCLL [R14C], 1.64. Still for that read-out and setting: as for CRNCINLQNEKQKRESFLKYKCLL [A11K], the figure is 1.78; as for CRNCINLQNEPQKRESFLKYKCLL [A11P], 1.71. Take CRNCINLQNENQKRESFLKYKCLL [A11N]: the protein stability index came to 1.56.

For the variant CRNCINLQNEIQKRESFLKYKCLL [A11I], the protein stability index stood at 1.82. Still for that read-out and setting: as for CRNCINLQNEEQKRESFLKYKCLL [A11E], the figure is 2.19. On the same count and under the same terms, as for CRNCINLQNEAKKRESFLKYKCLL [Q12K], the figure is 2.06; as for CRNCINLQNEAIKRESFLKYKCLL [Q12I], 2.58; as for CRNCINLQNEATKRESFLKYKCLL [Q12T], 1.71. In the case of CRNCINLQNEAWKRESFLKYKCLL [Q12W], the protein stability index was 2.31. The same measure, in the same setting: under CRNCINLQNEACKRESFLKYKCLL [Q12C] stands 1.81. The same measure, in the same setting: as for CKNCINLQNEAQKRESFLKYKCLL [R2K], the figure is 1.92; as for CCNCINLQNEAQKRESFLKYKCLL [R2C], 1.66. Consider CTNCINLQNEAQKRESFLKYKCLL [R2T], for which the protein stability index came to 1.93. On the same count and under the same terms, under CLNCINLQNEAQKRESFLKYKCLL [R2L] stands 1.93. Same read-out and setting: as for CRNCINLQNEAQKRESFLKYACLL [K21A], the figure is 1.16; as for CRNCINLQNEAQKRESFLKYWCLL [K21W], 1.78. Take CRNCINLQNEAQKRESFLKYGCLL [K21G]: the protein stability index turned out to be 2.7. Same read-out and setting: as for CRNCINLQNEAQKRESFLKYRCLL [K21R], the figure is 2.53. Still for that read-out and setting: under CRNCINLQNEAQKRESFLKYVCLL [K21V] stands 3.66; under CRNCINLQNEAQKRESFLKYQCLL [K21Q], 2.28; under CRKCINLQNEAQKRESFLKYKCLL [N3K], 1.9. On to CRLCINLQNEAQKRESFLKYKCLL [N3L], for which the protein stability index was 1.91. Take CRECINLQNEAQKRESFLKYKCLL [N3E]: the protein stability index was determined as 1.37. Same read-out and setting: under CRRCINLQNEAQKRESFLKYKCLL [N3R] stands 1.76. On the same count and under the same terms, as for CRICINLQNEAQKRESFLKYKCLL [N3I], the figure is 2.71. Still for that read-out and setting: under CRDCINLQNEAQKRESFLKYKCLL [N3D] stands 1.92; under CRPCINLQNEAQKRESFLKYKCLL [N3P], 1.92.

Take CRSCINLQNEAQKRESFLKYKCLL [N3S]: the protein stability index came to 2.59. For CRFCINLQNEAQKRESFLKYKCLL [N3F], the protein stability index was found to be 1.83. Still for that read-out and setting: under CRGCINLQNEAQKRESFLKYKCLL [N3G] stands 1.76; under CRACINLQNEAQKRESFLKYKCLL [N3A], 2.14; under CRNCINLQNEAQDRESFLKYKCLL [K13D], 1.58. As to CRNCINLQNEAQARESFLKYKCLL [K13A], the protein stability index was found to be 1.54. On the same count and under the same terms, under CRNCINLQNEAQHRESFLKYKCLL [K13H] stands 2.74.

As for CRNCINLQNEAQIRESFLKYKCLL [K13I], the protein stability index was found to be 2.01. On the same count and under the same terms, as for CRNCINLQNEAQGRESFLKYKCLL [K13G], the figure is 2.04.
